Paper PMC6232973

Target: CC1-CC2-SUN fragment of mouse SUN2 (SUN2 residues 410-731), wild type (mouse)
Experiment: SEC

CC1-CC2-SUN fragment of mouse SUN2 (SUN2 residues 410-731), wild type (domain or fragment)
stoichiometry N: 3
